Source: article PMC6557205, “Functional interplay between YY1 and CARM1 promotes oral carcinogenesis”

Biological target: His-YY1 full length (UniProt P25490 1-414)
Assay: EMSA; unlabelled probe competes; anti-His supershift; EMSA buffer 10% glycerol, 75 mM KCl, 10 mM HEPES (pH not stated), 5 mM MgCl2; 30 C, 30 min (Fig 7F: 15 min methylation + 15 min binding); 5% native PAGE in 0.5X TBE at 4 C
Conditions: protein: recombinant; tags: His (pET28b); label: 32P 5' end label on one strand; blunt

His-YY1 full length, sequence (P25490 whole entry): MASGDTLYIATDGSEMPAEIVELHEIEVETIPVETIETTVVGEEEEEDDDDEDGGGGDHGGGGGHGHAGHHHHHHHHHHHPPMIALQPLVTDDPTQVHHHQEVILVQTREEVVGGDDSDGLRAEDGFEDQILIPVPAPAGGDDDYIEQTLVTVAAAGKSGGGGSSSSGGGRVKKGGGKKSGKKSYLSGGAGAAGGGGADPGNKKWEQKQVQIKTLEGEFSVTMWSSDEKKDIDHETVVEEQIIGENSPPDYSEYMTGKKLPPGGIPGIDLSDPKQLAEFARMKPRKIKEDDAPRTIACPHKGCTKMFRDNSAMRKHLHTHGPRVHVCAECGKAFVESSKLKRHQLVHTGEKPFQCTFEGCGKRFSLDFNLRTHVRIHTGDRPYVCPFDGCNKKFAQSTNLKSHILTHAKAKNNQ

B1: CARM1proYY1_BS1 (dsDNA)
DNA 1: GGGACCTCTGGATCCCATGGTTGGATGGCTGGGGGGTGGA
DNA 2: TCCACCCCCCAGCCATCCAACCATGGGATCCAGAGGTCCC
Does B1 bind?
Result: binds
